Experimental data: patent publication US20250041435A1 (AstraZeneca / MedImmune, published 2025)
Changes are numbered by the printed parent chain.

T1: human STEAP2 (six-transmembrane epithelial antigen of prostate 2) (human, UniProt Q8NFT2 1-490)
T1 sequence: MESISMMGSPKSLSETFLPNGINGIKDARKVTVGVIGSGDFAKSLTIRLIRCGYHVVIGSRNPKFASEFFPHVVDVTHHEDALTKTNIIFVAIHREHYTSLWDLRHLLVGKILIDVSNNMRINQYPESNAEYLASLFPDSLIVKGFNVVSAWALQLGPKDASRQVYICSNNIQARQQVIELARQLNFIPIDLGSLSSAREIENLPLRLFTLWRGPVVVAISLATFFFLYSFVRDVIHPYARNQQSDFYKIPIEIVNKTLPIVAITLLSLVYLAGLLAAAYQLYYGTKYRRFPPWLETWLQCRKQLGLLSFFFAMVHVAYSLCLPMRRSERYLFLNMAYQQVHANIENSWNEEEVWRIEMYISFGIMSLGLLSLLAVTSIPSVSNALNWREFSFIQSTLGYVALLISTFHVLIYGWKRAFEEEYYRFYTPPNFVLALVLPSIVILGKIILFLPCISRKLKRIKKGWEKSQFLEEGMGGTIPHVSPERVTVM

B1: LO14 SG3932 DAR8 ADC (antibody, human IgG1, kappa, V domains shown)
VH: QVQLQQSGPGLVKPSQTLSLTCAISGDSVSRNSAVWNWIRQSPSRGLEWLGRTYYRSKWYNDYAPSVKSRITINPDTSKNQFSLQLNSVTPEDTAVYYCARGLRQNQFYYYMDVWGKGTTVTVSS
VL: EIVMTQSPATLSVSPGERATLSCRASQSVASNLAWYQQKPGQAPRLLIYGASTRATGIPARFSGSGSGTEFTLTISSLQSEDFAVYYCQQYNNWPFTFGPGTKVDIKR
modifications: SG3932 on native cysteines (DAR 8 per antibody); SG3932 (TOP1i, cleavable mal-PEG8-val-ala linker) on native cysteines through a thiosuccinimide linkage; DAR 8 per antibody
B2: 40A3-LO14 (antibody, human IgG1, kappa, V domains shown)
VH: B1 VH
VL: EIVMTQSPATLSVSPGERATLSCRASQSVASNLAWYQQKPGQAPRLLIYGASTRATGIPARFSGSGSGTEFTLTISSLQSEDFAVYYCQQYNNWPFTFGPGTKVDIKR
notes: also called 40A3GL-LO14; LO14 mAb
B3: LO11 SG3932 DAR8 ADC (antibody, human IgG1, kappa, V domains shown)
VH: B1 VH with R104L
VL: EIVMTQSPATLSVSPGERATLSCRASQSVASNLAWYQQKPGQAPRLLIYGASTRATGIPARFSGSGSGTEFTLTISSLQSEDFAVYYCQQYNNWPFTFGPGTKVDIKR
modifications: SG3932 on native cysteines (DAR 8 per antibody); SG3932 (TOP1i, cleavable mal-PEG8-val-ala linker) on native cysteines through a thiosuccinimide linkage; DAR 8 per antibody
B4: 40A3-LO11 (antibody, human IgG1, kappa, V domains shown)
VH: B1 VH with R104L
VL: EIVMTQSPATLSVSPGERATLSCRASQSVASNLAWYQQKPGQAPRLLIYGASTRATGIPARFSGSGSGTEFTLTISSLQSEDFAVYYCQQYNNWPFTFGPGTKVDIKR
notes: also called 40A3GL-LO11; LO11 mAb
B5: 40A3-LO12 (antibody, V domains shown)
VH: B1 VH with P65V
VL: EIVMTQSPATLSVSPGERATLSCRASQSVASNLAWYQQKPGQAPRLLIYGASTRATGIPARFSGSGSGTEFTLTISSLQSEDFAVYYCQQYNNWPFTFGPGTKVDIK
notes: Human IgG1 kappa
B6: 40A3-LO7 (antibody, V domains shown)
VH: B1 VH with P65V, R104L
VL: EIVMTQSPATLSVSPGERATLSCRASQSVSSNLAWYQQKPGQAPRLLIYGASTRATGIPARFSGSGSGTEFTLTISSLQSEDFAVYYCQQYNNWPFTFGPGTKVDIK
notes: Germlined, de-risked 40A3; Human IgG1 kappa; also called 40A3GL-LO7; STEAP2-3 VH / STEAP2-3 VL

Key:
[1] = target: T1, human STEAP2 (six-transmembrane …); assay: cell-based or functional assay
[2] = target: T1, human STEAP2 (six-transmembrane …); assay: cell-based or functional assay; remark: listed apart in the source
[3] = target: T1, human STEAP2 (six-transmembrane …); assay: cell-based binding (flow cytometry)
[4] = target: T1, human STEAP2 (six-transmembrane …); assay: flow cytometry on LNCaP cells (endogenous human STEAP2), anti-human AF647 secondary
Experimental: (§1) The cell-binding assays were designed to assess the binding affinities for parental 40A3-LO7 and its affinity matured derivatives to both human and murine STEAP2. The binding of the anti-STEAP2 antibodies were detected using a fluorescently labelled anti-human secondary antibody and standard methods of flow cytometry.
(§2) Briefly, a seven point 3-fold serial dilutions of 5× antibodies (mAbs) was prepared in sterile filtered FACS Buffer (5% Heat Inactivated Fetal Bovine Serum in PBS pH 7.4). Ten microliters of the antibody dilutions were added into designated wells in a 96-well U-bottom clear plate. The evaluated cells lines were harvested using cold 0.25% Trypsin-EDTA, resuspended in maintenance media, pelleted, and counted. Cell density was adjusted to 2×10⁶ cells/ml and forty microliters of cells were seeded on top of the antibody dilutions and incubated for 30 minutes. Cells were washed and a solution containing a 1:400 dilution of anti-human secondary antibody and a 1:1000 dilution of DAPI. After another 30 minute incubation, cells were washed, and then transferred to the FACS instrument for analysis.

[5] = target: T2, murine chimeric STEAP3-2 protein on AD293 cells (murine); assay: flow cytometry on AD293 muSTEAP3-2 cells, anti-human secondary
T2 construct: Used to test cross-reactivity to mouse STEAP2; also called AD293 muSTEAP3-2; AD293 STEAP3-2
Experimental: as §1, §2

[6] = target: T1, human STEAP2 (six-transmembrane …); assay: flow cytometry on LNCaP cells (endogenous human STEAP2)
[7] = target: T2, murine chimeric STEAP3-2 protein on …; assay: flow cytometry on AD293 muSTEAP3-2 cells, fluorescent anti-human secondary antibody
Experimental: as §1, §2

| Binder | In Vitro Potency (22Rv1), IC50 of cell viability (CellTiter-Glo) [1] [nM] | In Vitro Potency (C4-2), IC50 of cell viability (CellTiter-Glo) [1] [nM] | In Vitro Potency (LNCaP), IC50 of cell viability (CellTiter-Glo) [1] [nM] | IC50 of cell viability, LNCaP cells (CellTiter-Glo) [2] [nM] | EC50 [4] [nM] | EC50 [5] [nM] | EC50 [6] [nM] | further results |
| --- | --- | --- | --- | --- | --- | --- | --- | --- |
| B1 | 4.53 | 2.23 | 0.22 | 0.3 |  |  |  |  |
| B2 |  |  |  |  | 1.67 | 0.97 |  | fold improvement in binding relative to 40A3-LO7 [3]: 26 fold |
| B3 | 32.1 | 16.5 | 1.7 | 2.78 |  |  |  |  |
| B4 |  |  |  |  | 2.38 | 5.78 |  |  |
| B5 |  |  |  |  |  |  | 1.72 |  |
| B6 |  |  |  |  |  |  | 43.3 | EC50 (read off the curve) [7]: ~5 µg/mL |
